In the supplement of paper PMC9170038:

System: MS2 coat protein
Assay: apparent KD of MS2 coat protein; designed switch direction (-1 OFF switch, 1 ON switch): -1; higher = weaker reporter binding
In short: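 Designed RNA switches sharing common flanks were transcribed on Illumina chips by stalled E. coli RNA polymerase. They were titrated with SNAP-549-labelled MS2 coat protein, from 0.7 or 1.5 nM doubling to 3 µM, in Tris-HCl pH 7.5 buffer with KCl, MgCl2, BSA, DTT, tRNA and Tween-20. Titrations ran without input, with 200 uM small-molecule ligand, or with an oligonucleotide input. The apparent KD of each design is the median over its clusters, after curve-fitting of normalised cluster fluorescence.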

[1] = Eterna round: R95, input ligand: FMN 200 uM
[2] = Eterna round: R95, input ligand: microRNA oligo, concentration not stated
[3] = Eterna round: R95, input ligand: none
[4] = input ligand: microRNA oligo, concentration not stated

Row | Sequence | apparent KD of MS2 coat protein [1] [nM] | apparent KD of MS2 coat protein [2] [nM] | apparent KD of MS2 coat protein [3] [nM] | apparent KD of MS2 coat protein (input ligand: FMN 200 uM) [nM] | apparent KD of MS2 coat protein (input ligand: none) [nM] | apparent KD of MS2 coat protein [4] [nM]
1 | GGUACUAACACGAAAGUGUUAGUACUGUAGGUUUGUGUUACAUGAGGAUCACCCAUGUCCUCAUAAGCUCGUCUUGU [JL-sv3-2.22 mat747 mod] (puzzle: Sensor v3, turn-off variant 2) | 306 | 246 | 347 | – | – | –
2 | CCAAGCUUAUUCAUUAACCACAUGAGGAUCACCCAUGUCUAGGCAAUUAUGACUUGCCCAUCUGGUGCUCGUCUUAU [Sensor-V1 #32] (Eterna round: R97, puzzle: Sensor, turn-off variant 1) | – | – | – | 32 | 32.7 | –
3 | CCUAGACAUGAGGAUCACCCAUGUGAGGAUAUGAUGCGAUCGUCGAAAGACGAUAGCAUCAGAAGGCACAUAUG [Fiskers Ex 1 - 5] (puzzle: Exclusion 1) | – | 36.9 | – | – | – | –
4 | GCUUCUGGGCAAGGAUAUCCUGCGCUGUUCUGGUUCGUGUCUGUCACAUGAGGAUCACCCAUGUGGGAGAAGGUGCCUGUGGCG [Design 67] (Eterna round: R96, puzzle: Exclusion NG 2) | – | – | – | 20.9 | 24.8 | 17
5 | GCAAGACGAGGAUAUUGAGAAGGGAACAUGAGGAUCACCCAUGUGGUGGUUUCGACCGGUCGAGAAGGCGUAGAAC [EX5 B.6] (Eterna round: R97, puzzle: Exclusion 5) | – | – | – | 1150 | 957 | –
6 | GAGUGACAUGAGGAUCACCCAUGUGAGGAUAUCGGACGGACCAAAUUAACAAUAAUUGCGAGAAGGCACAUCGG [Exclusion 1 V14] (puzzle: Exclusion 1) | – | 52.1 | – | – | – | –
7 | GGAAUACAUGAGGAUCACCCAUGUAAGGAUAUGCUGAAUAACACGGAAUAAUCGUGCAGCAGAAGGUACAAAGG [Mat - Mod of my Eli Mod D45] (puzzle: Exclusion 1) | – | 86.3 | – | – | – | –
8 | AUUAAAACAUAGGAUAUCGAAUUUAUCAUUUAACGAGAAGGAUGAACAUGAGGAUCACCCAUGUGGUAUCAUGG [Mat - Exclusion 6 - JL Mod - D6] (puzzle: Exclusion 6) | – | 165 | – | – | – | –
9 | UAUAUAUAGUAAGGAUAUGUAUUAAUUUUUUAAACAGAAGGUACUGACAUGAGGAUCACCCAUGUUUUAGUGUGGGCAUGUAGA [JMF's solution 86] (Eterna round: R96, puzzle: Exclusion NG 1) | – | – | – | – | – | 65.7
10 | CCGGAAUAACAGGAUAUAGGAGUCGAUAGACACCUAGAAGGGUUGACAUGAGGAUCACCCAUGUGUCCUACCGG [Fiskers Ex 6 - 81] (puzzle: Exclusion 6) | 756 | 728 | 595 | – | – | –
11 | GAUGUGGGUUUUCAGAGUAACAUGAGGAUCACCCAUGUAGAAGUUGGAGGGAUCAAGCUUUUUGGUCGUCAUAUGUG [JR_SV3TOV1_Sub051] (puzzle: Sensor v3, turn-off variant 1) | 442 | 511 | 509 | – | – | –
12 | AACAGUCCUUAGGAUAUGUGCGAUUAAUAUCGUGCAGAAGGAUGGACAUGAGGAUCACCCAUGUAAAUACUACC [Omei Ex6 A17] (Eterna round: R97, puzzle: Exclusion 6) | – | – | – | 62.6 | 20.9 | –
13 | GUGAAGUGAGGAUAUACGAGAGAGGCUGAACCUGGAGAGAAGUAGAAGGCACAUGAGGAUCACCCAUGUUAGGA [JR_Exclu4_Sub021] (puzzle: Exclusion 4) | – | 38 | – | – | – | –
14 | AGCCAAGCAGGAUAUAUCCGGGAUAACAUGAGGAUCACCCAUGUGACCGCUUGAUAUCCUAUAGAAGGGCUUGGGA [Mod of ViennaUCT 24 - Jieux - Exclusion 5] (Eterna round: R97, puzzle: Exclusion 5) | – | – | – | 54.8 | 24.9 | –
15 | UGUGCGUAUGUGAGGAUAUGCUGGUCCUUGGAUCAGCAGAAGGCACAUGAGGAUCACCCAUGUGGUGUCGUACU [salish99_Bmod_Ex4_009] (puzzle: Brourd's mod of Exclusion 4) | – | 202 | – | – | – | –
16 | ACAUGAAGAUAGGAUAUCCGCGAAAAUGGUCUAGGAGAAGGGUCUACAUGAGGAUCACCCAUGUAGCAGUGGAU [Eternabot (L1) Solution 79] (Eterna round: R97, puzzle: Exclusion 6) | – | – | – | 14.7 | 16.7 | –
17 | AAGUAGACGGUGAGGAUAUAGGUCGAAUGACCGAUUUAGAAGGUACAUGAGGAUCACCCAUGUGGGUAACGUCG [Brourd's EX4 #29] (Eterna round: R97, puzzle: Brourd's mod of Exclusion 4) | – | – | – | 56.5 | 107 | –

Row | Sequence | apparent KD of MS2 coat protein [1] [nM] | apparent KD of MS2 coat protein [2] [nM] | apparent KD of MS2 coat protein [3] [nM] | apparent KD of MS2 coat protein (input ligand: FMN 200 uM) [nM] | apparent KD of MS2 coat protein (input ligand: none) [nM] | apparent KD of MS2 coat protein [4] [nM]
18 | CGCUAAGCUAUGCUCGUCAACAUGAGGAUCACCCAUGUGCACUACGGAAGGUACACAACGUACCAAAGACCUCAAAG [Eternabot (Original) Solution 27] (Eterna round: R97, puzzle: Sensor, turn-off variant 1) | – | – | – | 185 | 119 | –
19 | UAAAAUUUAGGAUAUGCGUGAGAUAGAGUACGAUGAGCUGCACAUGAGGAUCACCCAUGUAGAAGGAAAUUUUA [-11, -8.6 kcal, 36% A] (Eterna round: R97, puzzle: Exclusion 2) | – | – | – | 58 | 31.2 | –
20 | UAUUAGCAAGCGAGAUCCCACAUGAGGAUCACCCAUGUGCUCGUCUUAUAAAAGACUGUGACAAAAGUCACGGUCAC [Sensor 3, v1 - 91 v5] (Eterna round: R97, puzzle: Sensor, turn-off variant 1) | – | – | – | 15.9 | 15.1 | –
21 | CCUCUGGUAGGAUAUACUGGUGGCGGCAUUAUCGUGAAGGUACAUGAGGAUCACCCAUGUAGAAGGGCUCAAGU [Eternabot (L2) Solution 83] (Eterna round: R97, puzzle: Exclusion 2) | – | – | – | 38.3 | 37.1 | –
22 | AACUACUCUGUGAGGAUAUGCGAUCGUUGAUCAAAGCAGAAGGCACAUGAGGAUCACCCAUGUUCCUACGAGGG [Edatbiat] (puzzle: Brourd's mod of Exclusion 4) | – | 30.2 | – | – | – | –
23 | UUAUUUAGUGUGAGGAUAUGCUGGUCGAUAGAUCAGCAGAAGGCACAUGAGGAUCACCCAUGUAAUAUAUUAAU [Mat - Exclusion 4 - JL Mod - D33] (puzzle: Brourd's mod of Exclusion 4) | 395 | 50 | 72.7 | – | – | –
24 | AAACCCGCGCGAGGAUAUCACAUGAGGAUCACCCAUGUGGCACUCCGUCACCGGGCAGUCCCGAGUGAGAAGGUGCAGGCGGAA [Entereis] (Eterna round: R96, puzzle: Exclusion NG 2) | – | – | – | 27.5 | 23.4 | 32.4
25 | AAAUUGGUAGAGGAUAUUGUACAGGAAACGGUGCGAGAAGGUUGCACAUGAGGAUCACCCAUGUUUAGUUGCGA [EX6 #47] (Eterna round: R97, puzzle: Exclusion 6) | – | – | – | 27.2 | 32.4 | –
26 | CGCGCGCGUGUAGGAUAUGUGUUUGGUUCGGGCGCAGAAGGACAUGAGGAUCACCCAUGUGUGUGUGUGCGCGCAGUGUGUGCG [-30, -27 kcal, 15% A] (Eterna round: R96, puzzle: Exclusion NG 1) | – | – | – | 55 | 41.7 | 32.7
27 | GGAUAAAACUGAGGAUAUACGUAUCACUAACGAGUAGAAGGCAGACAUGAGGAUCACCCAUGUGAGUUCUCAAUAAGAAACACG [Prohibition 65 - Jieux - Exclusion NG 1] (Eterna round: R96, puzzle: Exclusion NG 1) | – | – | – | 74.9 | 51.2 | 43.5
28 | AAGCAGCGAGGAUAUGCUUGCGCGUGUCCUAGUUGAAAUAAACUUGAGGAUCACCCAAGUAGAAGGCGCAACCC [EX2 #42] (Eterna round: R97, puzzle: Exclusion 2) | – | – | – | 197 | 41.9 | –
29 | GCCCGGGCAGGAUAUACAAGCUUGAGCUGAAAAGUUCGAGUACAUGAGGAUCACCCAUGUAGAAGGGCCCGGGC [-37.5, -35.6 kcal, A 28% 1 bis] (Eterna round: R97, puzzle: Exclusion 2) | – | – | – | 29.4 | 18.7 | –
30 | GUGAGACAUGAGGAUCACCCAUGUGAGGAUAUCCGAAGGACCAAAUUAAGAAUAGAAGGGAGAAGGCACAUAAA [Exclusion 1 V6] (puzzle: Exclusion 1) | 128 | 68.4 | 157 | – | – | –
31 | AUAAUACAUGUAGGAUAUGCGUGGCGAAGCUAUGCAGAAGGACAUGAGGAUCACCCAUGUCUUAGCGUCUGCGUACAGAUGCUA [JL eng1 1.35 mod 2] (Eterna round: R96, puzzle: Exclusion NG 1) | – | – | – | 27.9 | 16.4 | 12.1
32 | AGAAACUCAAGAGGAUAUCACAUGAGGAUCACCCAUGUAUAGCGCGCUAUGCUAGUCCUCGUAUUUGAGAAGGUUUGAAAUAAG [Mat - Exclusion NG 2 - Mod of JL - D79] (Eterna round: R96, puzzle: Exclusion NG 2) | – | – | – | 29.8 | 18.3 | 12.5
33 | CUUUUGUGAGGAUAUUAGUAGUAAAUAAUUAAAAUUACUACUGAGAAGGCACAUGAGGAUCACCCAUGUUCCUC [salish99_ex4_r3_056] (Eterna round: R96, puzzle: Exclusion 4) | – | – | – | 489 | 37.4 | 33.2
34 | GAGGCAUGCUGAGGUCCACACAUGAGGAUCACCCAUGUAAUGACAAGCUUUUUACUCAUCUUAUCGCUAUCGCGUUC [Tiinarre] (puzzle: Sensor v3, turn-off variant 1) | 19.1 | 66.6 | 16.3 | – | – | –
